Source: patent US20050282743A1, “Molecular interactions in cells” (Arbor Vita Corporation, priority 2001, published 2005)
One block for each binder: values may come before it.

Tests used:
[1] = biological target: T1, GST-KIAA0807(S) PDZ domain 1 (Homo sapiens (Human)), Q6P0Q8; experiment: G assay titration, PDZ 0.1 ug/ml
T1 chain: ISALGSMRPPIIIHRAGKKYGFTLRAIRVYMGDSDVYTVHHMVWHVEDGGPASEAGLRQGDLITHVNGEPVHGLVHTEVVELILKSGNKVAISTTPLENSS

[2] = biological target: T2, GST-KIAA0973 PDZ domain 1 (Homo sapiens (Human)), Q9Y2H9; experiment: G' assay; note: key of the grades not given here
T2 chain: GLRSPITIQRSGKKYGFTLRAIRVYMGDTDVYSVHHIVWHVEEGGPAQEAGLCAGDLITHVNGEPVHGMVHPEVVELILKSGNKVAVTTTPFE

[3] = biological target: T3, GST-DLG1 PDZ domain 2 (Homo sapiens), Q12959; experiment: G' assay; note: key of the grades not given here
T3 chain: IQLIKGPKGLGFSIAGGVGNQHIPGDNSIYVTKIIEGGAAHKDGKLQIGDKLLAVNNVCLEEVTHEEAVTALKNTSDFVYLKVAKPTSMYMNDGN

[4] = biological target: T4, GST-KIAA0380 PDZ domain 1 (Homo sapiens (Human)), O15085; experiment: G' assay; note: key of the grades not given here
T4 chain: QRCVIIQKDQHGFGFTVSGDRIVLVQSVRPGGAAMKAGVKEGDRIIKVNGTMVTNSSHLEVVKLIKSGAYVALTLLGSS

[5] = biological target: GST-BAI-1 Associated Protein PDZ domain 5 (Homo sapiens (Human)), Q96QZ7; experiment: G' assay; note: key of the grades not given here
GST-BAI-1 Associated Protein PDZ domain 5 (Homo sapiens (Human)), Q96QZ7, sequence (Q96QZ7 988-1099): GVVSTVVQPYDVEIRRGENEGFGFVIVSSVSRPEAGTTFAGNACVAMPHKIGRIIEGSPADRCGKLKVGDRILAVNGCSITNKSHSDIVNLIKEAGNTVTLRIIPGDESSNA

[6] = biological target: T5, GST-ERBIN PDZ domain 1 (Homo sapiens (Human)), Q96RT1; experiment: G' assay; note: key of the grades not given here
T5 chain: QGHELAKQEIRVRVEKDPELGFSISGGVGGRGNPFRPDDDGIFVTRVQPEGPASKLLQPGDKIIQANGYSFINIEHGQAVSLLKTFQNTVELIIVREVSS

[7] = biological target: T6, GST-INADL PDZ domain 8 (Homo sapiens (Human)), Q8NI35; experiment: G' assay; note: key of the grades not given here
T6 chain: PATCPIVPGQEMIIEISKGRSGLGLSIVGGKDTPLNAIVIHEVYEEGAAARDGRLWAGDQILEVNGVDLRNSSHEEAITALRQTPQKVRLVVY

[8] = biological target: T7, GST-Outer Membrane PDZ domain 1 (Homo sapiens (Human)), P57105; experiment: G' assay; note: key of the grades not given here
T7 chain: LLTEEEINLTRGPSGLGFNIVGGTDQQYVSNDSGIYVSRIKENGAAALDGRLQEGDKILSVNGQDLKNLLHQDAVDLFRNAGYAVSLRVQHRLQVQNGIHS

[9] = biological target: T8, GST-NeDLG PDZ domain 3 (Mus musculus (Mouse)), P70175; experiment: G' assay; note: key of the grades not given here
T8 chain: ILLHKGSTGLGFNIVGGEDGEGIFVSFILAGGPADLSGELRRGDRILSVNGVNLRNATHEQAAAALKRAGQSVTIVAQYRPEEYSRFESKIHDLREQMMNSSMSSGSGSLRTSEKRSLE

[10] = biological target: T9, GST-KIAA1526 PDZ domain 1 (Homo sapiens (Human)), Q9P202; experiment: G' assay; note: key of the grades not given here
T9 chain: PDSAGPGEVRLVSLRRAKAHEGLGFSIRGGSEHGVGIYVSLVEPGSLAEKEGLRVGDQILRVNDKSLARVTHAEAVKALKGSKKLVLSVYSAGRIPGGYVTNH

[11] = biological target: GST-KIAA807 [GST: P08515]; experiment: G' assay; note: key of the grades not given here
GST-KIAA807 [GST: P08515], sequence (P08515 whole entry, the tested form may be a part): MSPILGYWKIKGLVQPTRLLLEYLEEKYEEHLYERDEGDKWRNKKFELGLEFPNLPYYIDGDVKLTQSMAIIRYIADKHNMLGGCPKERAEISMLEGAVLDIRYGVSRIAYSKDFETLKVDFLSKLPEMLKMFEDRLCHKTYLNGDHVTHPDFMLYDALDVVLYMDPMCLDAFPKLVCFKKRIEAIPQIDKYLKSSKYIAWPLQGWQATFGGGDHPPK

[12] = biological target: T1, GST-KIAA0807(S) PDZ domain 1 (Homo …); experiment: G' assay; note: key of the grades not given here
[13] = biological target: T10, GST-Syntrophin 1 alpha PDZ domain 1 (Homo sapiens (Human)), Q13424; experiment: G' assay; note: key of the grades not given here
T10 chain: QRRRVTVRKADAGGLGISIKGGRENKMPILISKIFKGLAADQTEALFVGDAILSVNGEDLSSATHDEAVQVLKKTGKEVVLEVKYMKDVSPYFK

[14] = biological target: T11, GST-ZO-3 PDZ domain 3 (Homo sapiens (Human)), O95049; experiment: G' assay; note: key of the grades not given here
T11 chain: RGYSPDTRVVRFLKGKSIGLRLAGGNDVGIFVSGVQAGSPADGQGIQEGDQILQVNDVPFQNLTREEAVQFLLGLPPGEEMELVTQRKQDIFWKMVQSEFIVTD

[15] = biological target: T12, GST-MUPP1 PDZ domain 10 (Homo sapiens (Human)), O75970; experiment: G' assay; note: key of the grades not given here
T12 chain: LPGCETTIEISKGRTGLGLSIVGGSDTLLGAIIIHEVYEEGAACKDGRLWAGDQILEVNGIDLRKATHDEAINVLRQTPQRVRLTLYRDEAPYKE

[16] = biological target: GST-KIAA1634 PDZ domain 4 (Homo sapiens (Human)), Q5TCQ9; experiment: G' assay; note: key of the grades not given here
GST-KIAA1634 PDZ domain 4 (Homo sapiens (Human)), Q5TCQ9, sequence (Q5TCQ9 844-945): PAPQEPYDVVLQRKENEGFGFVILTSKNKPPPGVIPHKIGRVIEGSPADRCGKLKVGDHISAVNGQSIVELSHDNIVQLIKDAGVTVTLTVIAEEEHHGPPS

[17] = biological target: T13, GST-TIP1 PDZ domain 1 (Table 9 insert) (Homo sapiens (Human)), O14907; experiment: G' assay; note: key of the grades not given here
T13 chain: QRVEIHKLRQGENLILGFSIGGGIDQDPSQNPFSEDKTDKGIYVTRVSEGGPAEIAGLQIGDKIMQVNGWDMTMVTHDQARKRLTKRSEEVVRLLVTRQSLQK

[18] = biological target: T5, GST-ERBIN PDZ domain 1 (Homo sapiens …); experiment: G assay titration, PDZ 5 ug/ml
[19] = biological target: GST-KIAA1634 PDZ domain 4 (Homo sapiens (Human)), Q5TCQ9; experiment: G assay titration, PDZ 5 ug/ml
[20] = biological target: T14, GST-KIAA1719 PDZ domain 5 (Homo sapiens (Human)), Q9C0E4; experiment: G' assay; note: key of the grades not given here
T14 chain: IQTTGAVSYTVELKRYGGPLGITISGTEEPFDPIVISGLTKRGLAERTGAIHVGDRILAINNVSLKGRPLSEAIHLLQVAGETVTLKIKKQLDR

[21] = biological target: T15, GST-KIAA1719 PDZ domain 2 (Homo sapiens (Human)), Q9C0E4; experiment: G' assay; note: key of the grades not given here
T15 chain: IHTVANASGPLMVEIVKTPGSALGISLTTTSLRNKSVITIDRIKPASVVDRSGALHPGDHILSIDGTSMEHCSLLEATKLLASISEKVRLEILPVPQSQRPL

[22] = biological target: GST-KIAA1634 PDZ domain 1 (Homo sapiens (Human)), Q5TCQ9; experiment: G' assay; note: key of the grades not given here
GST-KIAA1634 PDZ domain 1 (Homo sapiens (Human)), Q5TCQ9, sequence (Q5TCQ9 401-502): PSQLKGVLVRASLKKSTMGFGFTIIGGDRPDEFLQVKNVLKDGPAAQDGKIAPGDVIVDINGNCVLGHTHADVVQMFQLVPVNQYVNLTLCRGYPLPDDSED

[23] = biological target: GST-TAX IP2 PDZ domain 1 [GST: P08515]; experiment: G' assay; note: key of the grades not given here
GST-TAX IP2 PDZ domain 1 [GST: P08515], sequence (P08515 whole entry, the tested form may be a part): as the sequence (P08515 whole entry, the tested form may be a part) above

[24] = biological target: T16, GST-MINT1 PDZ domains 1, 2, Q02410; experiment: G' assay; note: key of the grades not given here
T16 chain: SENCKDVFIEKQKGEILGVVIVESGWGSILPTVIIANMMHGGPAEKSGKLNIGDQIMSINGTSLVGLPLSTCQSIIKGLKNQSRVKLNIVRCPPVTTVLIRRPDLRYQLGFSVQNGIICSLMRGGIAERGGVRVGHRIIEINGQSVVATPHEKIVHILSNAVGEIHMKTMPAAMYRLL

Kd [1]: 1 µM
Classification [2]: 5 A450 class
Classification [3]: 2 A450 class
Classification [4]: 1 A450 class
Classification [5]: 2 A450 class
Classification [6]: 4 A450 class
Classification [7]: 1 A450 class
Classification [8]: 4 A450 class
Classification [9]: 3 A450 class
Classification [10]: 1 A450 class
Classification [11]: 4 A450 class
Classification [12]: 4 A450 class
Classification [13]: 1 A450 class
Classification [14]: 1 A450 class
Classification [15]: 1 A450 class
Classification [16]: 3 A450 class
Classification [17]: 5 A450 class
Kd [18]: 7 µM
Kd [19]: 8 µM
B1: CITRON protein (peptide)
peptide: AGAVRTPLSQVNKVWDQSSV
modifications: not checked

Classification [20]: 1 A450 class
Classification [21]: 1 A450 class
Classification [22]: 1 A450 class
Classification [23]: 1 A450 class
Classification [17]: 1 A450 class
Classification [24]: 1 A450 class
B2: CKR5 (HIV Co-receptor) (peptide)
peptide: ERASSVYTRSTGEQEISVGL
modifications: not checked
